In the DeepSol protein solubility set:

Assay: soluble on expression in E. coli; label from the status in PepcDB or PDB records

Soluble on expression in E. coli, not soluble:
MGSDKIHHHHHHMSPMTIPSEMKALLLVGDGYTKTPSGSALEAMEPYLEQGRIAVPAPGPSQVLIKVNLASINPSDVAFIKGQYGQPRVKGRPAGFEGVGTIVAGGDEPYAKSLVGKRVAFATGLSNWGSWAEYAVAEAAACIPLLDTVRDEDGAAMIVNPLTAIAMFDIVKQEGEKAFVMTAGASQLCKLIIGLAKEEGFRPIVTVRRDEQIALLKDIGAAHVLNEKAPDFEATLREVMKAEQPRIFLDAVTGPLASAIFNAMPKRARWIIYGRLDPDATVIREPGQLIFQHKHIEGFWLSEWMRQFKERRGPAILEAQKRFSDGRWSTDVTAVVPLAEAIAWVPAELTKPNGKVFIRP
MGSDKIHHHHHHMSPRKPRSPTAPNSSASIAPIPRLMPKLFVLDSNVLMHDPTSLFRFQEHDIYITMTTLEELDNNKKGMSEVARNARQTSRFLDEIVSSAITDIDEGISLQLHGTKNATGRLFLQTQAITNVLPVYLASGSADNQIIGAVKFLHDTHQNRVVTLVSKDINMRIKARALGLAAEDYFNDKVLEDTDVLFSGIQELPEDFWDEHGKDMESWQQSGQTFYRVTGPLAGGFVINQFVYLEHDKPFYAQVKETSGRTAVLQTLKDYTHQKNNVWGITARNREQNFAFNLLMNPEVDFVTLLGQAGTGKTLLTLAAGLMQTLEHKVYSEIIMTRVTVPVGEDIGFLPGTEEEKMTPWMGALEDNLDVLNKTDSSAGEWGRAATLDLIRSRIKIKSLNFMRGRTFINKFLIIDEAQNLTPKQMKTLITRAGPATKVVCLGNIAQIDTPYLSEGSSGLTYVVDRFKGWNHSGHVTLQRGERSRLADYAAEIL
MGSDKIHHHHHHMSPSIYPKSNYPDAAILSRLAQQIKGWGKALGFARVGICDTDLTSEEIKLQTWLDKGYHGEMAYMASHGMMRARPQELHPGTVRVISVRMDYLPPEAGFATNLTDPNLGYISRYAGGRDYHKLIRARLKKLGDHISAELIALGFDAADFRPFVDSAPVLERPLAEKAGIGWTGKHSLILNHDSGSWFFLGELFINLPLPVDIPIQEACNTCVACMTSCPTGAIVEPYVVDGRRCISYLTIELQGAIPEEFRPLMGNRIYGCDDCQLVCPINRQAPLTTEIDFHIRPQLKQPDLLSLFAWSEAEFLKQTEGSAIRRIGHKRWLRNIAVALGNAPANPIILEALTNRQESADVDEMVLEHIQWAIDAQQSRLAASNTLVQQKSRRQTARMVRIIEKGLPRDA
MGSDKIHHHHHHMSQAPYFVPRAPYAEDPSKSKGRRFKEDESRTRTPFARDRDRIIHTSAFRRLKEKTQVFVAHEGDNFRTRLTHTLEVAQVARSLATALGLDADLAETIALAHDLGHPPFGHAGEDELEIQMREYGGFDHNVQTFRVVTELEHRYPDFIGLNLTWETLEGVIKHNGPVTNKLGKPSWKAISKYDNEYELGLGTWASAEAQVAALADDIAYNNHDVDDGVTAGLFTLDDLMDVPLIGPILAAVKSERPDLDARLTHLEAVRRMIGAMVDDVMGETLHRAAASGVQSADDVRALDHALVAFSSDMAEDLARLRGFLYERMYRHWRVNRTRSQARRILGEMFALFLREPEVLPTVWFAKSQNRDEAGRARVVCDYIAGMTDRFAIEEHRKLFHLDVWN
MGSDKIHHHHHHMSQTLLPPGWVEKLCDPYAVLGISVIADDRQIFKRYHTLAKLLHPDRHAKNCNPDQKLATAIFSHLINPAYQQLKHRQKRLIAIAMLRSDARVSEQKPLSSQSAIAQEIMKMSTPEAELFYEEAIACYAEAQYKSLDQFYQVTQQITILNLVYLRLHKPDLFLPQKAVAIIPEVEVNPVELTLTDVKPVLTNYAQRHYQRAIEYVRLGKWVIAVQELRDAIKLEPNNSDYYALLGLVHLKQKFMGMARVYICQALKLNPQNSLALKYAPELKIKLGENTNPKSMAKAVSIAALLSRFTQRKGSQVKC
MGSDKIHHHHHHMSRDKTLFVCQECGSISNKWLGRCPDCGAWNSFVEQRVEKTVAKSQTTYATASPPQFLHAVPITDVGRSTTGLAELDRVLGGGQVPGAAILLGGEPGIGKSTLLLQTAHHLAQVSKVLYVTGEESAAQVALRAQRLGLGRSPVRVVAENHLEAIEGLLRGEQPALVLVDSIQTVYTDTLQSAPGSVAQVRECAARLVRFAKATGTTVWLVGHVTKEGAIAGPRVLEHMVDTVLYFEGEAGSPYRIVRAIKNRFGAANELGVFQMHEEGLSEVANPSQLFLSQHERPVAGSVVLATQEGTRPLLVEVQALVTPSPLANPRRVAIGLDPNRLSLLLAILHRHGDSMFFDQDVFVNIAGGIKVNEPAADLAVALALVSSFRNKPLEGRRVVFGELGLAGEVRPVAGTEARVREAVKLGFKGAILPRSDKISAAATFKLHPAGRLGDAMEAAFAAE
MGSDKIHHHHHHMSRTITIDPVTRIEGHATITIRLDDAGSVADARLHVTEFRGFEAFCVGRSIWEMPGITARICGICPISHSIASARAGDAILGVDIPPAAEQLRRIANLASLIQSHALSFFHLCAADLLLGMDHDPSRRSLWGLLESRPDVARRGIRLRQIGQQIVSNLAGERVHPSWAVPGGVREPLDAERRRKVVELLPEGIAIIRSAFELLDEIYGRHGAEVGTYGDFPSLFAGLVGEDGGLEHYDGMLRFTDSSGAVVEEVPPDHYDLAIGERSEPWSYMKFPFYRNHAGRDGGGMFRVGPLARLNLCERAGTPEADRELQTFRQLRGTGGVVTGSFHYHHARLIEILHALERIGELLDDPAILDRHVRSEAGVNRRHGVGFCEAPRGTLFHDYEVDDDGLILRLNLLIATGQNNLAMNRTILEVARSHIKGGKVSEGILNRIEHGIRAYDPCLSCATHVYGRMPFQVLLLAPDGTVVDEIAS
MGSDKIHHHHHHMSRVACAYIIRKATGEHECCETLEEHVQRSLEVWLGRLKKCYSSAVNRIIYSQGSQTLASVLGDPVAVAIVLHDIGKAVPAYQKKRIMRGRVQYRHELVSGALSLLAIEKAADMAGIGRNDRGLYVFEVPLAVMMHHESISMGVLAGELGERFVTLSVASLMLEDYYDGELWGLERLARTVKNMGAVGDAVVDVLKILSGSPPSRKEVLIALGRLKAYSLSGDTLSRLSARARVAGILHPLVVADSIAANEGRKRCNGDGGTWIVKRALGRDSQEPAEPCLS
MGSDKIHHHHHHMSSGTENDQFYSFDESDSSSIELYESHNTSEFTIHGLVFPKLISVTSQDSEFDINEDEDGVDTIYEGMLDAPLTKNNKRILCEGSVPNLSYECLTTKGIFERMLQRVDHLQPIFAIPSADILILLQHYDWNEERLLEVWTEKMDELLVELGLSTTANIKKDNDYNSHFREVEFKNDFTCIICCDKKDTETFALECGHEYCINCYRHYIKDKLHEGNIITCMDCSLALKNEDIDKVMGHPSSSKLMDSSIKSFVQKHNRNYKWCPFADCKSIVHLRDTSSLPEYTRLHYSPFVKCNSFHRFCFNCGFEVHSPADCKITTAWVKKARKESEILNWVLSHTKECPKCSVNIEKNGGCNHMVCSSCKYEFCWICEGPWAPHGKNFFQCTMYKNNEDNKSKNPQDANKTLKKYTFYYRLFNEHEVSAKLDWNLGQTLGTKVHALQERIGISWIDGQFLSESLKVLNEGRTVLKWSFAVAYYSDASHNLTKIFVDNQMLLANAVESLSELLQIKTPEVIMKRRPEFYNKAGYVENRTTALMECGRELLCKGICKAAE
MGSDKIHHHHHHMSSLATLAQPLADGTFQCLACQWRCTLAPGEIGRCHMRIGREEGIELINHGMISGAAIGPVEDHRLWHFFPDTTVLAIGGWGYALPIDQQRGPYGTLPTEPAKQRRLEPQRAADFALERLCRGVVWAFGEPAVNFEYVLALLQLSRAASRYTAIVTSGMLSLEALNELGPYLNGISLDLRGFSDNAYQRLGGISDWRHILRFAEEAQQRWKCHIEITTRIHHGVNDHPDELRDLVEWIKKTLGEETPWHVLPGDAGSETAAATKQARRIGHEGGLQFIYGHEPNQPTRCPSCHATLINRQHGVSRRVGLDGNRCSNCGYATNLYLSIFKVHRT
MGSDKIHHHHHHMSSNQIAIKVTNLSKCYQIYSQPWDRLKQFFAPKIKSVIRRESRSYFKEFWALRDVSFSINRGETVGIIGRNGAGKSTLLQMICGTLTPTVGDIEVNGRVAALLELGAGFNPEFSGRDNVYLNGSVLGLSKSEIDKKFQEILDFADIGDFIDQPVKTYSSGMYVRLAFAVQACIDPEILIVDEALAVGDIGFQYKCFKRMEMLKQKGTTIIMVTHSTGSILEYADRCLVMSDGMLVGNTTDVLAAVLAYEKGMLMTERTDTAEKKEAVSQTGEIASADELSAIQNTQTNAEVDEKRFGSGRAIIEDFSIMKADGTPLSEKPLVKPNEEIYFSFKLNSSENINDVVLGVSLSRTQGGDIWGDNNIFAGHKIDLAPGLRKLKYKVKLPINTGDYLVHCGLACFNNGEREELDQRRPIAKVKFWSSRELGGVIHSPVNVIEGDELS
MGSDKIHHHHHHMSTDNYYIRRRLLSSLTAHLDQPEITVLVGPRQSGKTTILKRLESELRAGGRKTLWLNLDFEDDFRHVASEGALLQKIQLELGSGGGVVFIDEIQRRENAGLFLKGLYDQGLPWKFVVSGSGSIELKEKISESLVGRKRLFELSTVSFGEFADFRTGYRYTDRLRDYFRTEPSKTDQLFREYLMYGGYPRVVLADTHQEKMATINEIFRSYLEKDIVYLLRVEKSESFSNLVRVLATQSGKMVSYSELSATLGLSLATVKLYLWYLEKTYIIDKVTPWYTNIRKEITKAPVYYFRDIGLRNFAAGSFGALSDSEAGFAFQNVIHAMLKERFPLADSTIHYWRTKDKAEVDFVLRSGDTVTPLEVKYRDMKKLDVRRSFLGFLTRYHPEFGYIVNRNYSDEALICQTRVRCLPYWELMFEEAFP
MGSDKIHHHHHHMSTEHLLLVSLLKKLKDDALVLPTLPEVAMRVQEVVGRSDASLKQVAEVIGQDAAISARIIKVANSALYSRGVPAESINSAVSRIGLIQIKSIATSVAMEQLFISTNEMVWEVMDEVWRTSIDVTAAACAMLQMYNKRHSTSRLNFDTLTLAGLVHNIGALPVLTEAEAQPHLFTSIDQLRALVRKMQGPLGRAVLKSWDFSTEVMEVVERWADLPYLPDHVTYLDFIRAAAFYTGELRAGTELEQRLGVFVARGLPVTTDDLASDEFMEKFHSIRESYQ
MGSDKIHHHHHHMSTLLQHVNLTEFVDVARQLGLDPYRQLRQAGIRPTALVDPEMRVPAKSVMQLLEDSAQLAGLEDLGLRVAEARELTTLGPLWTVMREGATLRNALGAMARYLHLLNEALDLRLEEVGDTAVVRLEFLVSVDGSMRQSTEFIICLWFRLFKLLSGDAWKPRSVCFTHAAPASLATHRRVFGVPVRFHQDFDGILLSAADLDVAGTTSDTALGRHAREFLDTKLAQSDSTMPDKVRKLVFALLPTGECGAEQVARQLGIDRKTMHRHLAAYGQNYLSVVDAVRVELVTRYLKNNERPLSDVAILMGFSSLSAFSRWFATRYGCSVSAWRRQRTAPEIRR
MGSDKIHHHHHHMSTNALRGKAAIVGFGDSYCKRGEVKSAMRLAQEATRRALDDAGLNKDEIDGLLTGRAPMSDQRHQWNNIFAAYNKITPRYASEITIHAAGMNSMLKHAALAVTSGVARFVLCVGADAAASQPTVRAQIGGMDADPEFEQPYEPIIPTIYAQMACRLMHEYGMSEEDFSAVAVQCQEWAVHHPYAAKGHKGLVTIDDVMRSPMIASPLRLWHCAPWGPPGTAGAVIVTDADTARSMSDRPIYLLGAGECQTHEYLSDRMALRSSILPLGDLPNITSTGCRVAGDAAFSMAGLRPDDINVVQTASQFAHVELQVLAELGFTDLRAAGEFVRSGATGPQGALPTNTNGGWLSFGQPGVSCVMDSISETIRQLRGEALGLQVQDAHIGLVHGNGGMQACHSVAILGREP
